In test [1] the target is T1, human IL-21R expressed on cells (human, UniProt Q9HBE5 20-538). Description: cell-based or functional assay.
Test [2] concerns the target T2, murine IL-21R expressed on cells (murine, UniProt Q9JHX3 20-529). Description: cell-based or functional assay.
Test [3] addresses T1, human IL-21R expressed on cells. Description: cell ELISA on transfected CHO cells, 13 nM IgG. The protocol: (§1) A subset of binding proteins was tested for binding to rat, cynomolgus monkey, human IL-21R, or human IL-2R-γ common subunit expressed transiently on the surfaces of CHO-PA-Dukx cells. Cells were transfected 48 hr prior to the assay. On the day of the assay, cells were washed gently 5× in PBS containing 0.9 mM CaCl₂ and 0.45 mM MgCl₂ (PBS/CaMg) on an automated plate washer (Titertek, Huntsville, Ala.), and blocked for 1 hr at RT in PBS/CaMg/5% nonfat dry milk. Conditioned media from transiently expressed anti-IL-21R IgGs were serially diluted in blocking buffer and added to the cells in the blocked plates for 1 hr at RT. Cells were washed 5× with PBS/CaMg and then incubated with horseradish peroxidase-conjugated anti-human IgG for 1 hr at RT. Cells were then washed 10× in PBS/CaMg and all of the wash buffer was removed. Cells were incubated with 100 μl TMB until the color reaction reached saturation, stopped with 100 μl of 0.18 M H₂SO₄, and read at A450 on a Perkin Elmer ENVISION™ plate reader.

Test [4] deals with T3, rat IL-21R expressed on cells (rat).
T3 construct: whole, on cells; Transiently transfected CHO-PA-Dukx cells
The experiment in a line: cell ELISA on transfected CHO cells, 13 nM IgG. The protocol: as §1

For test [5], the target named is T4, cynomolgus monkey IL-21R expressed on CHO cells (cynomolgus monkey).
T4 construct: whole, on cells
The experiment in a line: cell ELISA on transfected CHO cells, 13 nM IgG. On the procedure: as §1

The target of test [6] is T1, human IL-21R expressed on cells. Description: cell ELISA: CHO cells transiently expressing the receptor, antibody in conditioned medium, HRP anti-human IgG, A450. On the procedure: FIG. 6 depicts the binding of 21 anti-IL-21R IgGs to CHO cells transiently expressing human IL-21R (FIGS. 6a-c), rat IL-21R (FIGS. 6d-f), cynomolgus monkey IL-21R (FIGS. 6g-i), and human gamma common chain (FIGS. 6j-l). CHO cells were transiently transfected with IL-21R or the control gamma common chain, and binding was detected with HRP-conjugated anti-human IgG in a cell-based ELISA.
as §1

Test [7] shares this target. The experiment in a line: cell-based or functional assay. This is another data set of the same source.
Test [8] has as its target T2, murine IL-21R expressed on cells. Description: cell-based or functional assay. The source holds these as a separate data set.
Test [9] has as its target T5, human gamma common chain expressed on CHO cells (human, UniProt P31785 23-369).
T5 construct: whole, on cells; Control protein; also called human IL-2R-γ common subunit; human gamma (γ) common chain
T5 sequence (looked up): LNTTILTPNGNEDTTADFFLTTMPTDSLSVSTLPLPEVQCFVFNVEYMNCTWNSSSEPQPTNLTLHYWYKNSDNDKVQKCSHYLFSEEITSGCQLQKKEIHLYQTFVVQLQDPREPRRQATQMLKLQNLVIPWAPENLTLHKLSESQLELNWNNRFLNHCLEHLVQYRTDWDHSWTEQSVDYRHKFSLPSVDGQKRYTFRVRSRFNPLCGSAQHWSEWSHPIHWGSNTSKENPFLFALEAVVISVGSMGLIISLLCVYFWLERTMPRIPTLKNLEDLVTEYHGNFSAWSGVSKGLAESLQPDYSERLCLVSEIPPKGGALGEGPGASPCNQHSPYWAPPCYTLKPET
Description: cell ELISA on transfected CHO cells, 13 nM IgG. The protocol: as §1

Test [10] addresses T6, human IL-2Rβ (human, UniProt P14784 27-239).
T6 construct: Bought
T6 sequence (looked up): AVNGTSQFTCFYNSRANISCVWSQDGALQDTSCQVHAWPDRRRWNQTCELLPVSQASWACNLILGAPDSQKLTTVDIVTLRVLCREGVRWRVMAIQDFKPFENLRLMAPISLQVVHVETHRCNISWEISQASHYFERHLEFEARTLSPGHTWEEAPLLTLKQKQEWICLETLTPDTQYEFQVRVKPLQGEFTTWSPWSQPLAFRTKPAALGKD
The experiment in a line: BIACORE: antibody captured on anti-human IgG, 50 nM analyte injected. On the procedure: (§2) The specificity of binding of a subset of transiently expressed anti-IL-21R binding proteins (here antibodies) was tested on a BIACORE™ 2000 surface plasmon resonance instrument. Anti-human-IgG, anti-murine immunoglobulin antibodies, and murine IL-21R-H/F were immobilized onto a research-grade carboxymethyl-dextran chip (CM5) using standard amine coupling. The sensor chip surface was activated with EDC/NHS for 7 min at a flow rate of 20 μl/min. The first flow cell was used as reference surface to correct for bulk refractive index, matrix effects, and nonspecific binding. […] Remaining activated groups were blocked with 1.0 M ethanolamine (pH 8.0). The molecular weights of the anti-human IgG and the anti-murine IgG were both 150 kD, and the molecular weight of the IL-21R monomer was 27 kD.
(§3) Conditioned media containing anti-IL-21R antibodies and antibody controls (murine anti-human IL-2Rβ and murine anti-human IL-4R(R&D Systems, Minneapolis, Minn.); human anti-human IL-13 (Wyeth, Cambridge, Mass.)) were diluted in HBS/EP buffer supplemented with 0.2% bovine serum and injected onto all four flow cells of the BIACORE™ chip, capturing 500-700 (RU) of antibody on the species-appropriate capture antibody. Following a 5 sec washing period, 50 nM solutions of a positive control protein (murine IL-21R-H/F), two human proteins related to IL-21R (human IL-2Rβ and human sIL-4R(R&D Systems)), or an unrelated His/FLAG-tagged protein (human IL-13-H/F), were injected over the captured antibodies on the chip. The association and dissociation phases were monitored for 120 and 180 sec, respectively, followed by two 5 μl injections of glycine (pH 1.5) to regenerate a fully active capturing surface. All binding experiments were done at 25° C. in HBS/EP buffer. Blank and buffer effects were subtracted for each sensorgram using double referencing.

Test [11] has as its target T7, human soluble IL-4R (human, UniProt P24394 26-231, limits assumed).
T7 construct: soluble; also called human sIL-4R
Described as above. On the procedure:
as §2, §3

In test [12] the target is T8, human IL-13-His/FLAG (human, UniProt P35225 35-146, limits assumed).
T8 construct: Unrelated His/FLAG-tagged control; also called human IL-13-H/F
Described as above. On the procedure: as §2, §3

Test [13] has as its target T1, human IL-21R expressed on cells. The experiment in a line: cell-based or functional assay. The source holds these as a separate data set.
For test [14], the target named is T4, cynomolgus monkey IL-21R expressed on …. Description: cell ELISA: CHO cells transiently expressing the receptor, antibody in conditioned medium, HRP anti-human IgG, A450. The protocol: as §1
The target in test [15] is murine IL-21 (murine, UniProt Q9ES17 18-146). The experiment in a line: cell-based or functional assay.

T1 sequence (Q9HBE5 20-538 limits assumed): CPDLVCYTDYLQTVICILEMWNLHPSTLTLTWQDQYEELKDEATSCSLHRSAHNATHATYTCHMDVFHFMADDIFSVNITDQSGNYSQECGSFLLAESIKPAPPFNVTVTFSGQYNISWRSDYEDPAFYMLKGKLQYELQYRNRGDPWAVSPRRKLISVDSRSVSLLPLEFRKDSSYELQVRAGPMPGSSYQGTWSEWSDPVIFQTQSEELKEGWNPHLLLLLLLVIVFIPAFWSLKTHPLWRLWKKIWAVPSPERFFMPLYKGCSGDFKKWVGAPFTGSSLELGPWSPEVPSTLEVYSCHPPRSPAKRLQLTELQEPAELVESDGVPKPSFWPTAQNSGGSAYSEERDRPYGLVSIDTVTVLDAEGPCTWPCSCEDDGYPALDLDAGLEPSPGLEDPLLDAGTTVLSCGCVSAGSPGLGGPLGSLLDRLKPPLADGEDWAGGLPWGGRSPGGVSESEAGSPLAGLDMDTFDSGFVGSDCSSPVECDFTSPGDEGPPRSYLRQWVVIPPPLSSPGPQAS
T2 sequence (Q9JHX3 20-529 limits assumed): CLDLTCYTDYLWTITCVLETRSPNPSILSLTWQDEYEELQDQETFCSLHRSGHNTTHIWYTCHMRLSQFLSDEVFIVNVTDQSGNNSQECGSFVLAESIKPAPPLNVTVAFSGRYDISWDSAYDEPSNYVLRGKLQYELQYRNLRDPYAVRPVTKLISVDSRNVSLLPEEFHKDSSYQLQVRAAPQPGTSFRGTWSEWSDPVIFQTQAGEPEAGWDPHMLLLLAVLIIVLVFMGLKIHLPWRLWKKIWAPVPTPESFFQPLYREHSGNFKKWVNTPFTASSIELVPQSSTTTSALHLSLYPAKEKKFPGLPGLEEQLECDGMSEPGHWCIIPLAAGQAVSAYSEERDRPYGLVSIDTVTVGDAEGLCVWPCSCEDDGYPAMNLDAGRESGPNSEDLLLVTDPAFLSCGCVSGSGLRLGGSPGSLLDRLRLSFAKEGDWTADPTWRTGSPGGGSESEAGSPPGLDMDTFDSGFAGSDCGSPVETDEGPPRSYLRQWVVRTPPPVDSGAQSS
T7 sequence (P24394 26-231 limits assumed): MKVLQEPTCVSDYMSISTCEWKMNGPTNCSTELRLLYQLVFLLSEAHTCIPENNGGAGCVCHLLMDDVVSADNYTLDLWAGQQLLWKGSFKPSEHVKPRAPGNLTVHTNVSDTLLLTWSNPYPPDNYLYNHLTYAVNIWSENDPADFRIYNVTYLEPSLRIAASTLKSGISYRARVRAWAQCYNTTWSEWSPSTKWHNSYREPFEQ
T8 sequence (P35225 35-146 limits assumed): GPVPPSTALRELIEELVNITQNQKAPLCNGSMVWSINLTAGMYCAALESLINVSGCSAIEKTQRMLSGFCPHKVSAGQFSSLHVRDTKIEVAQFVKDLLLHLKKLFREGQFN

B1: AbD (antibody, human IgG1, V domains shown)
VH: QVQLQESGPGLVKPSETLSLTCAVSGYSISSGYYWGWIRQPPGKGLEWIGSISHTGNTYYNPPLKSRVTISVDTSKNQFSLKLSSVTAADTAVYYCARGGGISRPEYWGQGTLVTVSS
VL: SSELTQDPAVSVALGQTVRITCQGDSLRTYYASWYQQKPGQAPVLVIYGKHKRPSGIPDRFSGSSSGNTASLTITGAQAEDEADYYCVTRNRYGNPHVLFGGGTQLTVL
notes: Full-length human IgG1 / human lambda, transient, conditioned medium; Framework limits derived; also called VHP/VL13
Consider B1, for which the “Human IL-21R-BaF3 Proliferation IC50” value in test [1] was found to be 0.91 nM. The “Human IL-21R-TF1 Proliferation IC50” value in test [1] is 2.67 nM. Besides, the “Murine IL-21R-BaF3 Proliferation IC50” value in test [2] amounted to 0.01 nM. Besides, the “A450 at 13 nM Ab in cell ELISA” value in test [3] is 1.25 A450; in test [4] it was 0.874 A450; in [5], 1.38 A450. For the same molecule, the “EC50 (read off the curve)” value in test [6] is approximately 1 nM.

B2: AbO (antibody, human IgG1, V domains shown)
VH: QVQLQESGPGLVKPSETLSLTCAVSGYSISSGYYWGWIRQPPGKGLEWIGSISHTGNTYYNPPLKSRVTISVDTSKNQFSLKLSSVTAADTAVYYCARGGGISRPEYWGQGTLVTVSS
VL: SSELTQDPAVSVALGQTVRITCQGDSLRTYYASWYQQKPGQAPVLVIYGKHKRPSGIPDRFSGSSSGNTASLTITGAQAEDEADYYCVTRSAKGNPHVLFGGGTQLTVL
notes: Human IgG1 triple-mutant (L234A, L235A, G237A); Framework limits derived; also called VHP/VL16; VHPTM/VL16
Regarding B2, the “Human IL-21R-BaF3 Proliferation IC50” value in [1] amounted to 0.52 nM. Besides, the “Human IL-21R-TF1 Proliferation IC50” value in [1] is 2.91 nM. In addition, the “Murine IL-21R-BaF3 Proliferation IC50” value in test [2] turned out to be 0.065 nM. Also, in test [7], the “Neutralization of T cell Proliferation IC50 (nM), human primary CD4+ T cells” value turned out to be 0.06 nM. The “Neutralization of T cell Proliferation IC50 (nM), murine primary CD8+ T cells” value in test [8] amounted to 4.92 nM. The “A450 at 13 nM Ab in cell ELISA” value is 1.11 A450 in [3], 1.1 A450 in test [4], 1.36 A450 in test [5] and 0.108 A450 in test [9]. The binding result in test [10], in [11] and in test [12] was “no binding (tested: 50 nM)” each time. For the same molecule, in test [6], the “EC50 (read off the curve)” value is approximately 0.3 nM.

B3: AbQ (antibody, human IgG1, V domains shown)
VH: QVQLQESGPGLVKPSETLSLTCAVSGYSISSGYYWGWIRQPPGKGLEWIGSISHTGNTYYNPPLKSRVTISVDTSKNQFSLKLSSVTAADTAVYYCARFMGFGRPEYWGQGTLVTVSS
VL: SSELTQDPAVSVALGQTVRITCQGDSLRTYYASWYQQKPGQAPVLVIYGKHKRPSGIPDRFSGSSSGNTASLTITGAQAEDEADYYCVARSVVGNPHVLFGGGTQLTVL
notes: Purified form: human IgG1 double-mutant (L234A, G237A); Framework limits derived; also called VH3/VL2; VH3DM/VL2
With B3, the “Human IL-21R-BaF3 Proliferation IC50” value in [1] was determined as 0.68 nM. Also, in test [1], the “Human IL-21R-TF1 Proliferation IC50” value is 4.62 nM. Moreover, in test [2], the “Murine IL-21R-BaF3 Proliferation IC50” value came to 0.153 nM. In addition, the “Neutralization of B cell proliferation IC50” value in [13] was determined as 0.16 nM. Besides, the “Neutralization of T cell Proliferation IC50 (nM), human primary CD4+ T cells” value in test [7] is 0.08 nM. Further, in test [8], the “Neutralization of T cell Proliferation IC50 (nM), murine primary CD8+ T cells” value was 0.85 nM. For the same molecule, the “A450 at 13 nM Ab in cell ELISA” value turned out to be 1.25 A450 in test [3], 1.16 A450 in test [4], 1.31 A450 in [5] and 0.125 A450 in test [9]. Also, the binding result in test [10], in test [11] and in [12] was “no binding (tested: 50 nM)” throughout. The “EC50 (read off the curve)” value in [14] is approximately 0.6 nM.

B4: AbL (antibody, human IgG1, V domains shown)
VH: QVQLQESGPGLVKPSETLSLTCAVSGYSISSGYYWGWIRQPPGKGLEWIGSISHTGNTYYNPPLKSRVTISVDTSKNQFSLKLSSVTAADTAVYYCARFMGFGRPEYWGQGTLVTVSS
VL: SSELTQDPAVSVALGQTVRITCQGDSLRTYYASWYQQKPGQAPVLVIYGKHKRPSGIPDRFSGSSSGNTASLTITGAQAEDEADYYCVTRNRYGNPHVLFGGGTQLTVL
notes: Full-length human IgG1 / human lambda, transient, conditioned medium; Framework limits derived; also called VH3/VL13
B4: in test [1], the “Human IL-21R-BaF3 Proliferation IC50” value was 0.68 nM. Besides, the “Human IL-21R-TF1 Proliferation IC50” value in [1] is 4.25 nM. For the same molecule, the “Murine IL-21R-BaF3 Proliferation IC50” value in [2] was found to be 0.227 nM. Also, the “A450 at 13 nM Ab in cell ELISA” value in test [3] came out at 1.45 A450; in test [4], 1.26 A450; in test [5], 1.51 A450. In addition, in [14], the concentration giving a half-maximal response (EC50 (read off the curve)) is approximately 0.8 nM.

B5: murine IL-21R-Fc (Fc fusion, not shown: a dimerising Fc or GST)
chain: not shown
For B5, in [15], the “Murine IL-21R-BaF3 Neutralization IC50” value came to 0.04 nM.

The record behind these values is patent publication US20090298167A1 (Pfizer, published 2009).
